Measured values reported in patent US6190920A, “Method for detecting enzyme catalyzed cyclization” (The Regents of the University of California, priority 1997, dated 2001).
Where a name gives a salt, the structure may show the parent alone. *1 amine or outer side, *2 acyl side, *3 side chain or, on linkers, in order; H or OH if unused. Where a SMILES comes first, the peptide text is derived from it. Bridges are numbered along the chain shown (N, C = ends). Where no end group is shown, it is not given here. [ ]: non-standard residue; d: D form. The star is where a group is joined. X2 = CCN(CCN([C@@H](Cc1ccc(O)cc1)C(=O)[*:2])[*:1])c1ccc(N=Nc2ccc([N+](=O)[O-])cc2)cc1; X1 = NC(=O)CCCC(=O)*

Legend:
Type in all cases: biochemical, bovine
Trypsin [1] = molecular target: T1, Trypsin (Bos taurus, UniProt P00760); assay: Trypsin assay (L-BAPNA hydrolysis, absorbance at 410 nm); details: 5% DMSO
T1 construct: Trypsin (from bovine pancrease, Type I, ethanol precipitate); purchased Sigma Type I (catalogue number not given); host or cells: bovine pancreas
T1 sequence (P00760 24-246): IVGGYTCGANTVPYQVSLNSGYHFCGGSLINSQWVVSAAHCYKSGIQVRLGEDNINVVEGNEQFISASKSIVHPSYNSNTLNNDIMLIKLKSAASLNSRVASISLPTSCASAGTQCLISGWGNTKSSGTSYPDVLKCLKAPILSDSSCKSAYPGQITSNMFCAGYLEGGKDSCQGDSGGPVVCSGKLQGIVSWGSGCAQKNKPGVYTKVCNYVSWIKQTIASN
Procedure: (§1) Reagents and solvents were obtained from commercial suppliers and used as received. Trypsin (from bovine pancrease, Type I, ethanol precipitate) and N-α-benzoyl-L-arginine-p-nitroanilide, hydrochloride were obtained from Sigma®. All moisture- or air-sensitive reactions were conducted under nitrogen in dried solvents. Unless otherwise indicated, chromatography was performed on silica gel with the indicated solvent as eluant. […]
All assays were performed at 37° C. on a Kontron Uvikon 860 UV-Vis spectrophotmeter. The forward reaction rate was measured by monitoring the absorbance change at 410 nm of the para-nitroanilide produced ( e=8800 M^-1 cm^-1 at 410 nm) at 30 sec intervals for 15 min. The concentrations of inhibitor solutions were determined spectrophotometrically from Disperse Red 1's extinction coefficient of 15,562 M^-1 cm^-1 at 490 nm. […] Inhibition constants (Ki 's) were determined from the slope of the V0 /v vs. [inhibitor] plots where the slope=1/Ki (1 +[L-BAPNA]/Km) and Km =2.0 +/-0.3 mM, V0 =rate in the absence of inhibitor and v=rate in the presence of inhibitor. […]

Trypsin [2] = molecular target: T1, Trypsin; assay: Trypsin-catalyzed cyclization of acyclic compound, products determined; details: 30:30:40 DMF/ethanol/pH 6.5 Tris buffer
Procedure: The structure was determined conventionally.
The compound of Formula III SEQ ID NO: 1 where L is a resin linker was treated in the same manner, and the resin component removed. […] Therefore the material on the resin is accessible to the enzyme. A control experiment without the enzyme gave only starting material.
as §1

Trypsin [3] = molecular target: T1, Trypsin; assay: Dye retention on resin after trypsin treatment and cleavage of ester X; details: trypsin in 30:30:40 DMF/ethanol/pH 6.5 Tris buffer, then 1:1 methanol/1M sodium hydroxide, filtered and washed
Description: The compound of formula (3) is soluble; the compounds of formula (4) and (5) are not, as a consequence of their attachment to a resin. Therefore, whether or not cyclization has taken place, a solid insoluble product will remain, which can be filtered off and purified by washing. However, if cyclization has taken place and a product of formula (5) has been formed, the dye will still be attached to the resin, which consequently is visibly colored, or is visible under UV or by fluorescence, depending upon the dye used. If cyclization has not taken place and products of formula (3) and (4) have been formed, the dye will be seen in the filtrate and the insoluble resin material will be colorless.
The specific analogs that afford positive results in this screen may be then identified by conventional analysis of the material that is isolated from the resin beads by cleaving the bond linking the material to the resin beads. […]

CCN(CCN1C(=O)[C@H](CC(C)C)NC(=O)[C@H](CO)NC(=O)[C@H](CCCNC(=N)N)NC(=O)[C@@H](NC(=O)CCCC(N)=O)[C@@H](C)OC(=O)[C@H](C(C)C)NC(=O)[C@@H]1Cc1ccc(O)cc1)c1ccc(N=Nc2ccc([N+](=O)[O-])cc2)cc1 [macrocyclic analog] (X1-TRSL[X2]V; ester 1-C)
Ki (Trypsin [1]; 37° C., 100 mM TRIS/10 mM CaCl2 pH=8.0, substrate L-BAPNA, average value of 3 separate determinations, read-out: inhibition constant Ki): 230 nM

O-{N-[L-serinyl-L-leucyl]-N-[(4-nitrophenylazo)-2-aminophenylethyl-N-ethyl]-L-tyrosinyl-L-valinyl}-N-(glutaryl carboxamide)-L-threonyl-L-arginine, Methyl Ester (SLYVTR-OMe; also: depsipeptide: Val ester-linked to Thr side-chain O, Tyr N-substituted with (4-nitrophenylazo)-2-aminophenylethyl-N-ethyl azo dye, Thr N-acylated with glutaryl carboxamide) [Ser--Leu--N(dye)--Tyr--Val--O--Thr(NH--C(O)--(CH2)3 CONH--L)--Arg--OR, R methyl, L hydrogen]
cyclization by trypsin (Trypsin [2]): readily cyclized

NC(N)=NCCCC(NC(=O)c1ccccc1)C(=O)Nc1ccc([N+](=O)[O-])cc1 [L-BAPNA, N-α-benzoyl-L-arginine-p-nitroanilide, hydrochloride, reference compound]
Km (Trypsin [1]; 100 mM TRIS/10 mM CaCl2 (pH=8.0), Lineweaver-Burke and non-linear regression of initial rates): 2000 ± 300 µM

O-{N-[L-Serinyl-L-leucyl]-N-[(4-nitrophenylazo)-2-aminophenylethyl-N-ethyl]-L-tyrosinyl-L-valinyl}-N-(glutaryl-photolinker-Tentagel-amide)-L-threonyl-L-arginine, Methyl Ester (SLYVTR-OMe; also: Tyr3 N-substituted with (4-nitrophenylazo)-2-aminophenylethyl-N-ethyl group, Val4-Thr5 ester bond via Thr side-chain OH, backbone changed)
retention of dye colour on resin (Trypsin [3]): The color was retained on the resin | cyclization by trypsin (Trypsin [2]): The same products A and B were obtained
